# Experiment: soluble on expression in E. coli; label from the status in PepcDB or PDB records
row,Sequence,soluble on expression in E. coli
1,MSLNEFPSRPIKLVVPYPAGGTLDIVGRNIAKMAEASLGEPIVADNVPGASGVIAHSQIARAPADGYTIGMSGLSPLVLAPHQYKNLPYSPLKDLSYVACFGETPLVLNVAISLPVKTVQELVAYAKANPGKLNYGSAGIGNASYLAAALFARQAGIEISHVPYKGNAPAMIDLVGGQIPILFDPPQTTLPQAATGKVRPLAVTSSQRFPGLPTLPTIAEAGWANYEFSIWYAMVAPAGVTLPPKNVSLAEWFNASKENGNDEDSAGALHAGIQAAARATAGTTPAARPCSVREGHHHHHH,not soluble
2,GPGSMSTEDASIAYAKKHKIHHLFELMATKVLLNRPENPFAYLRNLLKDVEESEKNRVPYDPTEVHFNNDVGAAAPAAGNSGGSGAAAPAAALTSAKKEKRTVTLATFGLDRAGKTCALSVLESGEADKKYTPTVGFAPIKFPLDDYNLCVFDLGGAANFRGIWVHYYHDCFGIVYVIDSAASDERVAESLKVLHETLQHPYVKGKPLLVLANKKDLPESRGVGVVPQGFLEEAMGEPGAPHRVLATCAIEDDPVLVEGIEWLLEAVSKEYDTLAKRVAKDSNEVKSEKARQRAARLAAIRGEDR,soluble
3,MRQIKVVLIGGGTGLSVMARGLREFPIDITAIVTVADNGGSTGKIRDEMDIPAPGDIRNVIAALSDSESVLSQLFQYRFEENQISGHSLGNLLIAGMTNITNDFGHAIKALSKILNIKGRVIPSTNTSVQLNAVMEDGEIVFGETNIPKKHKKIDRVFLEPNDVQPMEEAIDALREADLIVLGPGSLYTSVISNLCVNGISDALIHSDAPKLYVSNVMTQPGETDGYSVKDHIDAIHRQAGQPFIDYVICSTQTFNAQVLKKYEEKHSKPVEVNKAELEKESINVKTSSNLVEISENHLVRHNTKVLSTMIYDIALELISTIPFVPSDKRKLEHHHHHH,soluble
4,MIHLARRRIVLTTPYFVPDEATLSALRIAGTSGVDVQLILSESNNQFLMAWAQEAYFEELLRAGIKIALYRPHFLHAKHLSVDDDIALFGSINLDIRSFALNAEIGMICYDSRIVTQLREVESDYLANARQLNLVEWQQRPAWRRSREGIARLADALM,not soluble
5,EFELKDFHVDYSISHPQSQHIQIIVCFKAQDKHEANAGRYRRIKPAWCTTEDGEHVIYYRISASRVDHDITTKYAFLDRDGKPKQIHHSEKLAVELMTLHPVIRLRDSRRFPRPSHINGDSKNARIEKRINNTCRRLLAMPGHVNKGEIRSSLDAMKTLVEHYFAFRSIGKGNPRKPRDGLFYTSPSSDKGLSQYLKETNDKQSRLLLMGLLSAYLQAKGPTDLRRCARPILIIEDPEGRLHPTHLARAWSLLQLLPMQK,not soluble
6,MEFQKKKQKVIQVKEIKFRPGTDEGDYQVKLRSLIRFLEEGDKAKITLRFRGREMAHQQIGMEVLNRVKDDLQELAVVESFPTKIEGRQMIMVLAPKKKQ,soluble
7,MWIVFDVDGVLIDTSESYDMATKLTVEYFLSHLGIKKEVSLEIIRDMRKKGVFSDDFELSEALILMYLSGEDLPKGEGVEYLRQKLGIVLDRKDIERVFNTFYLGEIYPNSIFKFEGLWRKEKRIVDIELLKKAKETYKLGIVTGRDSLEMKLAEEIIRFKFDKVVTRDMFEKPDPRALYEVTQGEEAIYIGDSKVDEELVERYRRTFKGNVTYLMVGRDVNDVNEALKKILFQSYIRLEHHHHHH,soluble
8,ETGDIVETATGAGSFTTLLTAAEAAGLVDTLKGDGPFTVFAPTDAAFAALPEGTVEDLLKPENKEKLTEILTYHVVPGEVMSSDLTEGMTAETVEGGALTVTLEGGPKVNGVSISQPDVDASNGVIHVIDGVLMPGA,soluble
9,MSQAELFTISDLAREFDVTLRTIRFYEEQGLIEPQRDGRQRLFTRRDRGRLKLILRGKRIGLSLAEIREIIDMYQLARDEASQSQKLLDLLLARRRQLEAQRRDIDAVLDEIATLENHCRDVIDSQSSVA,not soluble
10,MSVIQNIIGRIAVLRGGKYSVEVDVATDEGFGRFTSPIDDNPMLHIAEARRAVSEVDEIIGPELIGFDASEQELIDSYLWEIDGTEDFSHIGANTALAVSTAIAKAAANSRDMPLYSYIGGTFATELPVPVLSFAQDDMFDYYLVVKDLLEVTDIIDATNKIREIVKEINLENLSKASEDVGVELGLEVALGIGMKKEMDIEKVLNLVEDYNVAYIKPIGPPELFLELIAGTHGVFIDGEYLFRTNSVLDRRYYNALSIKPINLGTLTDLYNFVNDVKAEKITPILAEAKYEPADETFPHIALGLRCPAMLISWSSIEKINELNRIAEELGERGRIITFEE,soluble
11,MSLNISFIASNTLHELAAFLEKLNNIREHHVGFCGEKGSEIKATLERDFSDIGVSKSFIVGYDGMEIKGAVGLDVDTKEESAEVWGPFVDEDDPEMWLDTATILWQQLIDSLTVPVSTFQFFINQHNVNAKKFILKLNGMEKGDHDILTCDRTQFYPPLNHDVRLFTNNHTQSFKKLHDSLFPQTYYDAEEILKKINEPTNKLLIIEKEQIVIGYAYVEVEPEHGEGQIEYIGIAPDYRRQGLATQLLTNALHVLFSYPTVEDITLCVSKQNTKAIRLYQAAGFKKERQLTYFELNVDGLDNRRGRGEGHHHHHH,soluble
12,MSLKVALVHDWLTNMGGAERVIINLKEIYKEAPIYTSLYNPDKLDDELRNIDVRTSFLQKPKNIKRGHQKLLPFMPMAFESFDLNEYDIVLSSCSSCAKGVVTNPNTMHVCYCHTPMRYAWEYYYEYADEWGLNKLKGKLLKYVMNYIRLWDGVSSKRVDYYIANSQNVAKRIWKHYKRESVVIHPPVRCKLFDISDVNEEYFLIVSRLVPYKRIDLAVEVFNELGLPLVVIGGGKDLDRLKNMAKDNIKFLGRQSDEVIKEYYSKCRAFIFPGEEDFGITPLEAQASGRPVIAYGKGGALETVVSGVTGVFFKEQTVDSLKSAVNEFEKINFDKSVIRRHAEEFDEEIFKKKIREYLSRSYDEFKKLKKWKVEGHHHHHH,soluble
13,MTTYAALLRGINVGGNKKVPMAELRTLLQGLGYGGVATYLQSGNAVFTSDHGDEQSLAAEVGQAIEKRFGFTVDVLVRDHAYLKAVREACPFPAAELEAKQLHVTYFSGPVDAERFASLDQPAFLPEEFRLGDRALYLYAPDGLGRSKLGETLARPRLLKGIVATSRNWNTVVKLEELTGA,not soluble
14,MKLSTAFLTFSAVFLYGSAQQLLYLNSFKGMRVNNDMYEWCNIYISAQSDDTSFLASVYIVTAKNSKSLLNIMQDNLQNTGEIQGYPVDPPAYLTTSLSDNEMKQLNGVIYLSSAGQRVDSTFHVYDIYQARKMNIIANGYSTFLFLNSNMQTKPSRSSIISDWNQIKGSSGLLYAGFPLDSKVNVYPIFSNPITIQNSEVLFPNVETFSLSLAAFYITTNNGFSFKIKPGYYNINGTNTTSVYSTTGFYMKPAGEDDSTIVVNIENDIRCSGTSGASVVGHFPTGGNVTVGFYNGMAKYEQSAPPEDYPSYNPWTIPFIGQHFKVSSTNGTAGQYYVQYFVNQRPPRQTTPPETTTKSAGAVKLFTSVVTLLMYWL,not soluble
15,MIEGIIEEIRTNGSFLITTHENPDGDAVGSSLALAGYLRRLGKDVTIHFCDPVPDLYAFLPLAEEVTRTVPDRDYDICFVLDVGEFRRAGKQIAECKRIKKFINIDHHLTSDNFGFINYIDPKAAATGILVHRIITGAGDVVGYETALCLYTAIITDTGSFRYSNANPEAFAIAGELVSTGINTWSIAEKLYESQPRERLELLALALSTLTISPRGEYASITVTLDMYNKTGASAELTDGFVNYPRSIRGVEVSVFFREINPGLFKVGFRSKGKIDVSRIAAAFGGGGHHNAAGATMNGSLEGIKATLFSHLESTLLEHHHHHH,not soluble
16,AMSYTPGQPVTAVVQRVEIHKLRQGENLILGFSIGGGIDQDPSQNPFSEDKTDKGIYVTRVSEGGPAEIAGLQIGDKIMQVNGWDMTMVTHDQARKRLTKRSEEVVRLLVTRQ,soluble
17,MGSDKIHHHHHHMKKVAIVQSNYIPWKGYFDMIAAVDEFILYDDMQYTRRDWRNRNQIKTPQGVQWLTVPVLVKGKYHQKIRETEIDGTDWAAAHWKALVQNYRRSPHFTEIAAWLEPLYLAETFTHISQLNRRFIEAICNYLGIKTVIKNSWDYTLLDGKTERLADLCVQAGGTEYISGPAAKDYVDEQVFKENGIKLTWFDYIGYPEYQQLWGEFTHGVTILDLLLNCGKNAKRYMKYVE,not soluble
18,MSLIRDRTEPVMSAKLPPVEPVSPTNPRSSASPGSPDRSGLPVVVSVVGLVHTPGLVTLAPGARIADALQAAGGAVDGADTVGLNMARQLGDGEQIVVGLAPPSGQPRVLGSSVGAGTPGPAGTSGTATTGPKTAPKTAEVLDLNTATVEQLDALPGIGPVTAAAIVAWRQRNGRFTSVDQLADVDGIGPARLDKRRNLVRVEGHHHHHH,soluble
19,MTTIGTRKRVAVVTGASSGIGEATARTLAAQGFHVVAVARRADRITALANQIGGTAIVADVTDDAAVEALARALSRVDVLVNNAGGAKGLQFVADADLEHWRWMWDTNVLGTLRVTRALLPKLIDSGDGLIVTVTSIAAIEVYDGGAGYTAAKHAQGALHRTLRGELLGKPVRLTEIAPGAVETEFSLVRFDGDQQRADAVYAGMTPLVAADVAEVIGFVATRPSHVNLDQIVIRPRDQASASRRATHPVR,not soluble
20,MGSDKIHHHHHHMKPNNWVSSSQATELLSKQLVTWPLAEKNYKALEAVQVKSFDMGGFSIRAQFNPARIVSTGAKVDARSLKERKCFLCPENLPVEQERLPFGFRHLVLCNPYPIFPQHFTIPTRKHTPQLILPQWNDFLELTRRLAPFTVFYNGPRSGASAPDHAHFQAVTRGIMPLDEEVTQFIRQSYASVYDNRIYPLTGNLRPGLVIQAATEEAATRLFKKIYAALPILPGEPEPMMNIFGSYYDNNWVITVIPRKRHRPWQYEAEGNDHLLSSPGAADIGGLFITPLEKDFKKINPELLRDVYQQVCLNDRDVEEIFVHLSSN,not soluble
21,MHGKRIALCASRKLDEMTTLIEKQGGTAIIRPAQGTVFSKGSELGEEMRTVIAMRPDWIVFTTGIGFEALLEAADREGMAAQWHRTIKEANVAARGYKTVTALKQIGVTPVAVSEDGTTKGLIAALYGHDFADKNVVVQLYGDTAPALKQFFLEQGALYTELLPYRHIAPDEETLATLYKEIVGREVDAVCFTSAMQVRFFFSFAREKKEIAPLLDAFRTDVVACAVGKVTKEALEEEGVDRVIAPEHERMGAMIVTLARYFGA,not soluble
22,GMTQLDTWLANTKPLIPVIVIDDLVHAIPMAKALVAGGVHLLEVTLRTEAGLAAISAIKKAVPEAIVGAGTVCTADDFQKAIDAGAQFIVSPGLTPELIEKAKQVKLDGQWQGVFLPGVATASEVMIAAQAGITQLKCFPASAIGGAKLLKAWSGPFPDIQFCPTGGISKDNYKEYLGLPNVICAGGSWLTESKLLIEGDWNEVTRRASEIVKLSDI,soluble
23,MRLPIFLLALSSASIVFSLDPVPEEYANVPKEFFEKFQAAIKSGDPVAVVDLFAPDDMLPVSGMIEAAQGIIKSFESYPTGIIERVRYEYGVIQINVRYYPNTPLLSKKTTIFKIKYENKWKGWTMVHFSDWM,not soluble
24,MYQAVVFFDLDGTLMQDDKTVAASSVRAIQQLRANHVLPVIATGRNVFEVQDVMTTTGIDSIVSANGSYVAYQGQFLSAHELDKELLTDITHFANRQQNALAYYNNAGFALSHRDALTTSNYRALRQTARVAPHFYEHQHINFLLTFDPLNAAQYRQRYRGRLHFVRNNPRALDTMQWGVSKAVGIQDILTKAHLTKVPTYAFGDQLNDIEMFRMIQTPIAMGNGHPQVKQLARYVTADNMHGGIAQGLQHFDLI,not soluble

# — the DeepSol protein solubility set
